According to US20160053248A1, “SYSTEMS AND METHODS FOR EVOLVING ENZYMES WITH DESIRED ACTIVITIES” (Potomac Affinity Proteins, LLC, priority 2009, published 2016):

B1: SBT189: D32A mutant of subtilisin, azide-triggered protease (SEQ ID NO: 27) (protein)
chain: AKCVSYGVAQIKAPALHSQGYTGSNVKVAVLASGIDSSHPDLNVAGGASFVPSETNPFQDNNSHGTHVAGTVLAVAPSASLYAVKVLGADGSGQASWIINGIEWAIANNMDVINMSLGSPSGSAALKAAVDKAVASGVVVVAAAGNSGTSGSSSTVSYPAKYPSVIAVGAVDSSNQRAPFSSVGPELDVMAPGVSICSTLPGGKYGALSGTSMASPHVAGAAALILSKHPNWTNTQVRSSLENTATKLGDSFYYGKGLINVEAAAQ
modifications: Subtilisin related sequence
B2: 77 amino acid prodomain: 77 amino acid subtilisin prodomain (SEQ ID NO: 25) (protein, listed as Bacillus amyloliquefaciens)
chain: AGKSNGEKKYIVGFKQTMSTMSAAKKKDVISEKGGKVQKQFKYVDAASATLNEKAVKELKKDPSVAYVEEDHVAHAY

What was measured:
[1] = system: GA-PFRAL-S-GB; test: Cleavage kinetics of GA-PFRAL-S-GB by position 166 mutant versus parent enzyme; type: biochemical; conditions: no azide
Description: Mutants were selected that cleave the substrate GA-PFRAL-S-GB in response to azide. Phage were bound to the GA-PFRAL-S-GB substrate and collected on IgG-Sepharose. The ability to hydrolyze the fusion protein is selected by washing the beads in 1 mM azide for 5 minutes in the release step. Phage are therefore released or retained from the resin based on the kinetics with which they cleave GA-PFRAL from GB under the triggering condition. Released phage were collected on HSA-Sepharose, acid eluted, neutralized, used to infect fresh E. coli cells, plated out, and colonies counted. Three cycles of selection were carried out. After three rounds of selection, the consensus amino acid at position 166 was threonine. The kinetic properties of the T166 mutant were compared to parent enzyme (SBT189), which has a serine at 166. The T166 mutant hydrolyzed GA-PFRAL-S-GB 1.5-times faster than SBT 189 in 1 mM azide. […] Thus the ratio of triggered rate to intrinsic rate was increased 5-fold by optimizing a single amino acid position in the S1 subsite. This ratio is a quantitative measure of how tightly the enzyme is regulated by the trigger.

[2] = system: GA-PLFRAL-S-GB; test: Acylation kinetics (GB release) of pre-formed enzyme-substrate complex monitored by fluorescence; type: biochemical
Excerpt: In panels A-C, RSUB1(AF350) represents subtilisin SBT189 conjugated to AF350).
The acylation reaction: Step 2 describes conversion of the ternary complex into an acyl-enzyme with the concomitant release to the C-terminal portion of the substrate. With substrates used in phage display, the GB domain is released concomitantly with the acylation step. If a fluorescent reporter group is attached to subtilisin, a decrease in energy transfer enables time-dependent quantitation of acylation.

[3] = system: Dabcyl-EEDKLFRAL-SATE(EDANS)G; test: Transient state kinetics with self-quenched FRET peptide: deacylation; type: biochemical; conditions: SBT189 in 50 mM azide
Description: The deacylation reaction and product release: A self-quenched FRET peptide that becomes highly fluorescent when cleaved (Dabcyl-EEDKLFRAL-SATE(EDANS)G (SEQ ID NO:16)) was synthesized. This peptide has been used to determine transient state kinetic parameters. Deacylation of SBT189 in 50 mM azide is faster (3.3 s^−1) than the wild type counterpart (1.8 s^−1). The rate of product (Dabcyl-EEDKLFRAL; (SEQ ID NO:17)) release is 6 s^−1 and Kp is 1.2 μM. Product binding is not influenced by azide concentration. Strong product binding of subtilisin-phage to GA-PCOGNATE- is used for the collection of active mutants in the release step in phage selection (see FIG. 5). Binding is constitutive at this step, however, and is not used to increase selectivity.

[4] = system: GB-LFRAL-SA-GFP; test: Digestion of GB-LFRAL-SA-GFP fusion protein in E. coli extract (protein gel, MALDI-MS); type: biochemical; conditions: 20 μM fusion protein, 50 nM SBT189, 10 mM azide, 0.1M KPi, pH 7.2, 22° C.
Description: In order to evaluate sequence specificity of SBT189 for the cognate sequence identified by phage display, a gene was constructed to direct the synthesis of a fusion of the 56 amino acid B domain (GB) of streptococcal Protein G to a linker comprising the cognate sequence LFRAL-SA (SEQ ID NO:5) followed by GFP. Accordingly, the protein is denoted “GB-LFRAL-SA-GFP”.
Timepoints were collected as indicated. The fusion protein (20 μM) was mixed with 50 nM of SBT189 in 10 mM azide, 0.1M KPi, pH 7.2, at 22° C.

[5] = molecular target: subtilisin; conditions: competitive inhibitor of active subtilisin; cited from earlier work

Molecule	cleavage rate in the absence of azide [1] [min⁻¹]	rate of GB release ([2]; 0.1M KPO4, pH 7.2, no azide, 22° C.) [s⁻¹]	rate of GB release ([2]; saturating azide) [s⁻¹]	azide dependent rate enhancement ([2]; saturating azide versus no azide)	deacylation rate [3] [s⁻¹]	processing of the fusion protein [4]	Ki [5] [nM]
B1	0.12	0.0019	6.4	about 3300 fold	3.3	correctly and specifically processed	–
B2	–	–	–	–	–	–	540
